Experiment [1] deals with dock3_mouse Dock3 (UniProt Q8CIQ7).
Experiment [2] has the same target. This is another data set of the same source.

Sequence of Presenilin-2 (Homo sapiens), P49810 N141I (P49810 whole entry N141I): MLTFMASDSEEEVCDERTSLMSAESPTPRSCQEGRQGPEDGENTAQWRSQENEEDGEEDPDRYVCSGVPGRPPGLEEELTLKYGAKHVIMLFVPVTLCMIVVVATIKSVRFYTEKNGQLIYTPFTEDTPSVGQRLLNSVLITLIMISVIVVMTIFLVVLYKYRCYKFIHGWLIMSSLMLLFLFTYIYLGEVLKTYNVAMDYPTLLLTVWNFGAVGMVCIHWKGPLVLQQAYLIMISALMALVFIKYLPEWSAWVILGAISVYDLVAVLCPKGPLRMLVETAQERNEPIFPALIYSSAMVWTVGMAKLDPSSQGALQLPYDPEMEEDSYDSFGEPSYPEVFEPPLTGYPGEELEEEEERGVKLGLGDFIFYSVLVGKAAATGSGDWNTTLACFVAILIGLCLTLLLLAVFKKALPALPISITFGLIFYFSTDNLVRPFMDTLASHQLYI

With “Presenilin-1 (Homo sapiens) (from UniProt P49768) C410Y”, in the experiment with dock3_mouse Dock3 [1], the “effect of a mutation on the interaction” value is reported as “increasing interaction strength”.

On to “Presenilin-1 (Homo sapiens) (from UniProt P49768) M146L”, for which the “effect of a mutation on the interaction” value with dock3_mouse Dock3 [1] was “increasing interaction strength”.

Turning to “Presenilin-2 (Homo sapiens), P49810 N141I”, in the experiment with dock3_mouse Dock3 [2], the “effect of a mutation on the interaction” value is listed as “with no effect”.
